Molecular target: 6H-SsrBc (Salmonella enterica serovar Typhimurium, UniProt Q7CQM5 138-212)
Test: EMSA; 0-2 uM protein
Conditions: protein: recombinant; 5' overhang 4 nt at both ends

Sequence of 6H-SsrBc (Q7CQM5 138-212): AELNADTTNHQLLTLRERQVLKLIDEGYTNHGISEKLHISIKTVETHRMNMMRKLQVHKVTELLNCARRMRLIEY

Binder | binding result
hilA -35+6 (dsDNA) DNA 1: GATCCGCATTTACACCCCAAAAAAATGCAGTAAGATAGCTACAAA DNA 2: AGCTTTTGTAGCTATCTTACTGCATTTTTTTGGGGTGTAAATGCG | no binding
hilD -37+6 (dsDNA) DNA 1: GATCCGCATTTACAACTCAGATTTTTTCAGTAGGATACCAGTAAGGA DNA 2: AGCTTCCTTACTGGTATCCTACTGAAAAAATCTGAGTTGTAAATGCG | binds

Source: publication PMC5562331, “The transcriptional regulator SsrB is involved in a molecular switch controlling virulence lifestyles of Salmonella”
